What was measured:
Dicer [1] = target: T1, Dicer (human, UniProt Q9UPY3 1-1922); experiment: SEC; gel filtration column chromatography of Dicer with the dsRBP or chimeric dsRBP, reconstituted from purified proteins; details: both partners purified
T1 construct: Dicer, human endoribonuclease; also called endonuclease Dicer
T1 sequence (Q9UPY3 whole entry): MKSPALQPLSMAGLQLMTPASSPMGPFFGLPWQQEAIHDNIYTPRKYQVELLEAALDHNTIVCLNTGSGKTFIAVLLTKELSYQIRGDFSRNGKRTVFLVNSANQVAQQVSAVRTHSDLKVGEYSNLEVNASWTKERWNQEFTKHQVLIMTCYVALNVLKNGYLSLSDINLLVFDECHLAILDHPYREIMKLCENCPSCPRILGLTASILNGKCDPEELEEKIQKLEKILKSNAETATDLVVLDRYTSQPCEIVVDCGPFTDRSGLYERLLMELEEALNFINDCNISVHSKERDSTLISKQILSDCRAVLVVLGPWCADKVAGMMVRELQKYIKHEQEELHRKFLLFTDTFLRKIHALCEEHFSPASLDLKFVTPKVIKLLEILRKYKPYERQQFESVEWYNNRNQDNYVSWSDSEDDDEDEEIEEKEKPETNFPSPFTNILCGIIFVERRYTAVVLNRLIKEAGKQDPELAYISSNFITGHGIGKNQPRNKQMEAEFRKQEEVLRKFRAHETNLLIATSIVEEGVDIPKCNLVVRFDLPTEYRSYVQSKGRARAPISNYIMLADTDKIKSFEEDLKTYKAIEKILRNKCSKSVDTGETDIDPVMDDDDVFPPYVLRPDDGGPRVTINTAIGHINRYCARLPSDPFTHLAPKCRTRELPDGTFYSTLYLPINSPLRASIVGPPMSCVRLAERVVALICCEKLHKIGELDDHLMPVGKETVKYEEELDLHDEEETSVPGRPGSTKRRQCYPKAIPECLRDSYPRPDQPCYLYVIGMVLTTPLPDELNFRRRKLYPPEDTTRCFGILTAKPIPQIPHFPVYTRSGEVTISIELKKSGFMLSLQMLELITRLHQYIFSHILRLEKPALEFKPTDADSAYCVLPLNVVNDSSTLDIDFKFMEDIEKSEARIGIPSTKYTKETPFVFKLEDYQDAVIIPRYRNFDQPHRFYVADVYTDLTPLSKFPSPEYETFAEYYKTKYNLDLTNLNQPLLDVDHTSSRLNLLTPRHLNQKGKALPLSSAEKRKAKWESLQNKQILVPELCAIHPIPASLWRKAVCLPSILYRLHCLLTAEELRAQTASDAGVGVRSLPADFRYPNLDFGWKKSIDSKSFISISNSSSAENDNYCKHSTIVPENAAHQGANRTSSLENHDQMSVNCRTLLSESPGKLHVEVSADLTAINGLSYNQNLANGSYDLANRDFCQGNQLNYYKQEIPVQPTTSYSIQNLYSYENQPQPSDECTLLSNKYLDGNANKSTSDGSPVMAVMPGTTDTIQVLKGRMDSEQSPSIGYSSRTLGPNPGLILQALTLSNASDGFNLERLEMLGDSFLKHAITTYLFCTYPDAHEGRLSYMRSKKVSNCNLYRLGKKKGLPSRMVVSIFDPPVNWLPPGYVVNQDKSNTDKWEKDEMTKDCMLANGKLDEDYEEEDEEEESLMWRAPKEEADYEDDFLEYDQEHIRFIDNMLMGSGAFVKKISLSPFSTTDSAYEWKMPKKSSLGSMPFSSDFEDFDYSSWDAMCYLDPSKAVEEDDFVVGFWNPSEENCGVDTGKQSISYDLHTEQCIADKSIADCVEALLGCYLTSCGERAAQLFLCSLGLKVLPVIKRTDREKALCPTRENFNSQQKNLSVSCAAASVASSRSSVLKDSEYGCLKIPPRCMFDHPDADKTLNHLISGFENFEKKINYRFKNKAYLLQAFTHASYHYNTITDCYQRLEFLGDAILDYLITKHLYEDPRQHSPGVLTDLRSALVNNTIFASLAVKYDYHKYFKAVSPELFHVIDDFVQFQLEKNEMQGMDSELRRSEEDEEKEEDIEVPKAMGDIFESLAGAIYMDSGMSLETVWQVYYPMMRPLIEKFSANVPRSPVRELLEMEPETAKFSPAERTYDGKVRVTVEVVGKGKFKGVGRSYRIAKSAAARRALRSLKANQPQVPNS

Dicer [2] = target: T1, Dicer; experiment: native gel or EMSA; dsRNA A (0.5 uM) with 0, 0.5 or 1 uM protein or complex in 20 mM HEPES (pH 7.5), 300 mM KCl, 5% glycerol, 1 mM TCEP, on ice 45 min, 6% native PAGE, SYBR-Gold; the shift by the Dicer-dsRBP complex is compared with that by the dsRBP alone; details: both partners purified
Dicer;TRBP = Dicer;TRBP (human;human, UniProt Q9UPY3;Q15633 1-1922;1-366, |); experiment: EMSA; 0.5 uM dsRNA, up to 1 uM complex; Fig 1B: 20 mM HEPES pH 7.5, 300 mM KCl, 5% glycerol, 1 mM TCEP, on ice 45 min, 6% native PAGE; Fig S5: 20 mM Tris-HCl pH 6.5, 1.5 mM MgCl2, 25 mM NaCl, 1 mM DTT, 1% glycerol, on ice 60 min; details: protein: recombinant;recombinant; copies: 1;1
Dicer;TRBP, sequence (Q9UPY3 whole entry, one chain of several): as the sequence (Q9UPY3 whole entry) above

Dicer [3] = target: Dicer (human, UniProt Q9UPY3 1-1922); experiment: EMSA; 0.5 uM dsRNA, up to 1 uM protein; Fig 1B: 20 mM HEPES pH 7.5, 300 mM KCl, 5% glycerol, 1 mM TCEP, on ice 45 min, 6% native PAGE; Fig S5: 20 mM Tris-HCl pH 6.5, 1.5 mM MgCl2, 25 mM NaCl, 1 mM DTT, 1% glycerol, on ice 60 min; details: protein: recombinant
Target sequence in this assay (Q9UPY3 whole entry): as above

TRBP = target: T2, TRBP (human, UniProt Q15633 1-366); experiment: as above; details: protein: recombinant
T2 sequence: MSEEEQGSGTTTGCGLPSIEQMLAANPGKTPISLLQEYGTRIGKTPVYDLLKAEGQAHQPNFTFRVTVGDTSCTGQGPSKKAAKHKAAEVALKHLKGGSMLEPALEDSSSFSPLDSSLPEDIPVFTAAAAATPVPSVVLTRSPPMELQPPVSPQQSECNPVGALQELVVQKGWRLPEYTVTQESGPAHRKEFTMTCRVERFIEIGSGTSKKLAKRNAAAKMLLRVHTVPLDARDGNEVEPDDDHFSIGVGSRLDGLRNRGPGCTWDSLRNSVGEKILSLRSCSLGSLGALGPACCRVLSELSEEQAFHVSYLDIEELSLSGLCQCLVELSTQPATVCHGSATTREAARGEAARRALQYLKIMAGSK

Dicer;PACT = Dicer;PACT (human;human, UniProt Q9UPY3;O75569 1-1922;1-313, |); experiment: EMSA; 0.5 uM dsRNA, up to 1 uM complex; shift distinct from PACT alone; Fig 1B: 20 mM HEPES pH 7.5, 300 mM KCl, 5% glycerol, 1 mM TCEP, on ice 45 min, 6% native PAGE; Fig S5: 20 mM Tris-HCl pH 6.5, 1.5 mM MgCl2, 25 mM NaCl, 1 mM DTT, 1% glycerol, on ice 60 min; details: protein: recombinant;recombinant; tags: ;His6-MBP removed by TEV; copies: 1;1
Dicer;PACT, sequence (Q9UPY3 whole entry, one chain of several): as the sequence (Q9UPY3 whole entry) above

B1: protein activator of PKR (PACT) (natural protein, human, UniProt O75569 1-313, looked up)
chain: MSQSRHRAEAPPLEREDSGTFSLGKMITAKPGKTPIQVLHEYGMKTKNIPVYECERSDVQIHVPTFTFRVTVGDITCTGEGTSKKLAKHRAAEAAINILKANASICFAVPDPLMPDPSKQPKNQLNPIGSLQELAIHHGWRLPEYTLSQEGGPAHKREYTTICRLESFMETGKGASKKQAKRNAAEKFLAKFSNISPENHISLTNVVGHSLGCTWHSLRNSPGEKINLLKRSLLSIPNTDYIQLLSEIAKEQGFNITYLDIDELSANGQYQCLAELSTSPITVCHGSGISCGNAQSDAAHNALQYLKIIAERK
notes: called full-length; the chimeras' limits run to residue 313; source: purified (TEV cleavage, HiTrap-SP, Superdex-200)
binding result (Dicer [1]): binds

B2: trans-activation response RNA-binding protein (TRBP) (natural protein, human, UniProt Q15633 1-366, looked up)
chain: MSEEEQGSGTTTGCGLPSIEQMLAANPGKTPISLLQEYGTRIGKTPVYDLLKAEGQAHQPNFTFRVTVGDTSCTGQGPSKKAAKHKAAEVALKHLKGGSMLEPALEDSSSFSPLDSSLPEDIPVFTAAAAATPVPSVVLTRSPPMELQPPVSPQQSECNPVGALQELVVQKGWRLPEYTVTQESGPAHRKEFTMTCRVERFIEIGSGTSKKLAKRNAAAKMLLRVHTVPLDARDGNEVEPDDDHFSIGVGSRLDGLRNRGPGCTWDSLRNSVGEKILSLRSCSLGSLGALGPACCRVLSELSEEQAFHVSYLDIEELSLSGLCQCLVELSTQPATVCHGSATTREAARGEAARRALQYLKIMAGSK
notes: called full-length; the chimeras' limits run to residue 366; removal of His6-MBP after TEV cleavage on a Ni-NTA column is told by comparison with the PACT purification
binding result (Dicer [2]): binds

B3: T12P3 (other, human, UniProt Q15633 1-232, looked up)
chain: MSEEEQGSGTTTGCGLPSIEQMLAANPGKTPISLLQEYGTRIGKTPVYDLLKAEGQAHQPNFTFRVTVGDTSCTGQGPSKKAAKHKAAEVALKHLKGGSMLEPALEDSSSFSPLDSSLPEDIPVFTAAAAATPVPSVVLTRSPPMELQPPVSPQQSECNPVGALQELVVQKGWRLPEYTVTQESGPAHRKEFTMTCRVERFIEIGSGTSKKLAKRNAAAKMLLRVHTVPLDAPENHISLTNVVGHSLGCTWHSLRNSPGEKINLLKRSLLSIPNTDYIQLLSEIAKEQGFNITYLDIDELSANGQYQCLAELSTSPITVCHGSGISCGNAQSDAAHNALQYLKIIAERK
notes: TRBP, human, residues 1-232 (dsRBD1, linker, dsRBD2); PACT, human, residues 197-313 (with dsRBD3); purified by the PACT method, which removes His6-MBP by TEV cleavage; also called chimeric protein T12P3; source: purified (HiTrap-Q flow-through, HiTrap-SP, then as PACT)
binding result (Dicer [1]): binds

B4: dsRNA A (dsRNA)
RNA 1: UGGCCUUGGGCAACGGUAAUU
RNA 2: UUACCGUUGCCCAAGGCCAUU
binding result (Dicer;TRBP): binds | binding result (Dicer [3]): no binding | binding result (TRBP): binds | binding result (Dicer;PACT): binds
